From patent US20180155451A1 (published 2018)

Tests used:
[1] = target: T1, FcγRIIa R (extracellular domain, C-terminal His tag) (human, UniProt P12318 34-217); assay: ratio of He/Con_2aR to He/Con_2b (FcγRIIb); SPR relative binding
T1 construct: extracellular domain; also called FcgRIIa R type; 2aR; not shown: His tag attached to the C terminus
T1 sequence (looked up): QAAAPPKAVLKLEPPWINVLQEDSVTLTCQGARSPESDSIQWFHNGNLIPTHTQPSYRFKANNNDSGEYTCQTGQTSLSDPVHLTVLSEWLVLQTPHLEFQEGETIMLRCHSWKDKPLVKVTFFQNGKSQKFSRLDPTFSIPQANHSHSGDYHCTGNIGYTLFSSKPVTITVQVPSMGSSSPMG
Description: The heterodimerized antibodies He Abs in which one of the H chains was introduced with an alteration were assayed for their binding activities to each activating FcγR and inhibitory FcγR according to the method described in Example 4. […] The activating FcγRs in FIGS. 26, 27, 28, and 29 are FcγRIa, FcγRIIa (R), FcγRIIa (H), and FcγRIIIa, respectively.
Analysis of interaction between objective antibody and the FcγR was carried out using Biacore T100 (GE Healthcare). HBS-EP+ (GE Healthcare) was used as the running buffer, and the measurement temperature was set to 25° C. Chips produced by immobilizing the antigen peptide by the amine coupling method to a Series S Sencor Chip CM5 (GE Healthcare), or alternatively, chips produced by allowing preliminarily biotinylated antigen peptides to interact with and immobilize onto a Series S Sensor Chip SA (certified) (GE Healthcare) were used. Antibodies of interest were captured onto an antigen peptide-immobilized chip, and allowed to interact to each FcγR diluted with running buffer. To regenerate and repeatedly use the chip, the antibodies captured on the chip were washed off by reacting 10 mM glycine-HCl, pH 1.5.

[2] = target: T2, FcγRIIb (extracellular domain, C-terminal His tag) (human, UniProt P31994 43-217); assay: SPR (Biacore), antibody captured on antigen-peptide chip, FcγR as analyte; relative binding amount
T2 construct: extracellular domain; also called FcgRIIb; 2b; not shown: His tag attached to the C terminus
T2 sequence (looked up): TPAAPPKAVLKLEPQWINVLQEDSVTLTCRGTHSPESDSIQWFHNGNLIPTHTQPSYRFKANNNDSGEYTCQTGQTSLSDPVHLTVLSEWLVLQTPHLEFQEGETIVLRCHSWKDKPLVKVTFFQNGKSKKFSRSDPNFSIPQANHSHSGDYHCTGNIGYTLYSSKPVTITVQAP

[3] = target: T1, FcγRIIa R (extracellular domain, …); assay: as above
[4] = target: T3, FcγRIIa H (human, UniProt P12318 34-217); assay: SPR (Biacore), antibody captured on antigen-peptide chip, FcγR as analyte; binding relative to GpH7-A5/GpH7-B3/GpL16-k0 = 100
T3 construct: extracellular domain; also called FcgRIIa H type; 2aH
T3 sequence (looked up): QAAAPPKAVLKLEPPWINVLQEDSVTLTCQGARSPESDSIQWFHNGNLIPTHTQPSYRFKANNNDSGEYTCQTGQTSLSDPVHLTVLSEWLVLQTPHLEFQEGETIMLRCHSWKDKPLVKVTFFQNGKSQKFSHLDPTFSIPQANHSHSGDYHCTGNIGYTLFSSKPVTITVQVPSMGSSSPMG

[5] = target: T4, FcγRIIb (human, UniProt P31994 43-217); assay: as above
T4 construct: extracellular domain; also called FcgRIIb; 2b
T4 sequence (looked up): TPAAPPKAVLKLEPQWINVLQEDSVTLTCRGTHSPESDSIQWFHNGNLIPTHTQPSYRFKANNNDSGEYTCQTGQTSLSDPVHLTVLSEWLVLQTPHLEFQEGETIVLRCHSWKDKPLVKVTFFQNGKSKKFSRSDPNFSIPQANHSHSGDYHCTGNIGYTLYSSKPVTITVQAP

[6] = target: T3, FcγRIIa H; assay: ratio of He/Con_2aH to He/Con_2b (relative SPR binding to FcγRIIa H over that of the same antibody to FcγRIIb)

Binder	He_2aR/2b (IIaR/IIb) [1]	He/Con_2b [2]	He/Con_2aR [3]	He/Con_2aH [4]	He/Con_2b [5]	He_2aH/2b (IIaH/IIb) [6]
GpH7-A5/GpH7-B3 variant S239_15Y/GpL16-k0 (antibody, human IgG1, kappa, Heterodimerized anti-glypican-3 IgG1; alteration in only one H chain (GpH7-B3 side); also called He Ab) heavy 1: not shown heavy 2: not shown light: DIVMTQSPLSLPVTPGEPASISCQASESLVHSNRNTYLHWYLQKPGQSPQLLIYKVSNRFSGVPDRFSGSGSGTDFTLKISRVEAEDVGVYYCSQNTHVPPTFGQGTKVEIERTVAAPSVFIFPPSDEQLKSGTASVVCLLNNFYPREAKVQWKVDNALQSGNSQESVTEQDSKDSTYSLSSTLTLSKADYEKHKVYACEVTHQGLSSPVTKSFNRGEC	1.21	34.9 % of control (GpH7-A5/GpH7-B3/GpL16-k0 = 100)	42.2 % of control (GpH7-A5/GpH7-B3/GpL16-k0 = 100)	–	–	–
GpH7-A5/GpH7-B3 variant D265_04F/GpL16-k0 (antibody, human IgG1, kappa, Heterodimerized anti-glypican-3 IgG1; substitution in only one H chain (the GpH7-B3 chain); also called He Ab) heavy 1: not shown heavy 2: not shown light: DIVMTQSPLSLPVTPGEPASISCQASESLVHSNRNTYLHWYLQKPGQSPQLLIYKVSNRFSGVPDRFSGSGSGTDFTLKISRVEAEDVGVYYCSQNTHVPPTFGQGTKVEIERTVAAPSVFIFPPSDEQLKSGTASVVCLLNNFYPREAKVQWKVDNALQSGNSQESVTEQDSKDSTYSLSSTLTLSKADYEKHKVYACEVTHQGLSSPVTKSFNRGEC	–	–	–	4.1 % of HeCon Ab	3.2 % of HeCon Ab	1.28
GpH7-A5/GpH7-B3 variant D265_14T/GpL16-k0 (antibody, human IgG1, kappa, Heterodimerized anti-glypican-3 IgG1; substitution in only one H chain (the GpH7-B3 chain); also called He Ab) heavy 1: not shown heavy 2: not shown light: DIVMTQSPLSLPVTPGEPASISCQASESLVHSNRNTYLHWYLQKPGQSPQLLIYKVSNRFSGVPDRFSGSGSGTDFTLKISRVEAEDVGVYYCSQNTHVPPTFGQGTKVEIERTVAAPSVFIFPPSDEQLKSGTASVVCLLNNFYPREAKVQWKVDNALQSGNSQESVTEQDSKDSTYSLSSTLTLSKADYEKHKVYACEVTHQGLSSPVTKSFNRGEC	–	–	–	24.1 % of HeCon Ab	16 % of HeCon Ab	1.5
GpH7-A5/GpH7-B3 variant D265_19Q/GpL16-k0 (antibody, human IgG1, kappa, Heterodimerized anti-glypican-3 IgG1; substitution in only one H chain (the GpH7-B3 chain); also called He Ab) heavy 1: not shown heavy 2: not shown light: DIVMTQSPLSLPVTPGEPASISCQASESLVHSNRNTYLHWYLQKPGQSPQLLIYKVSNRFSGVPDRFSGSGSGTDFTLKISRVEAEDVGVYYCSQNTHVPPTFGQGTKVEIERTVAAPSVFIFPPSDEQLKSGTASVVCLLNNFYPREAKVQWKVDNALQSGNSQESVTEQDSKDSTYSLSSTLTLSKADYEKHKVYACEVTHQGLSSPVTKSFNRGEC	–	–	–	47.7 % of HeCon Ab	33.4 % of HeCon Ab	1.43
GpH7-A5/GpH7-B3 variant D265_15Y/GpL16-k0 (antibody, human IgG1, kappa, Heterodimerized anti-glypican-3 IgG1; substitution in only one H chain (the GpH7-B3 chain); also called He Ab) heavy 1: not shown heavy 2: not shown light: DIVMTQSPLSLPVTPGEPASISCQASESLVHSNRNTYLHWYLQKPGQSPQLLIYKVSNRFSGVPDRFSGSGSGTDFTLKISRVEAEDVGVYYCSQNTHVPPTFGQGTKVEIERTVAAPSVFIFPPSDEQLKSGTASVVCLLNNFYPREAKVQWKVDNALQSGNSQESVTEQDSKDSTYSLSSTLTLSKADYEKHKVYACEVTHQGLSSPVTKSFNRGEC	–	–	–	3.7 % of HeCon Ab	0.6 % of HeCon Ab	6.07
GpH7-A5/GpH7-B3 variant D265_11K/GpL16-k0 (antibody, human IgG1, kappa, Heterodimerized anti-glypican-3 IgG1; substitution in only one H chain (the GpH7-B3 chain); also called He Ab) heavy 1: not shown heavy 2: not shown light: DIVMTQSPLSLPVTPGEPASISCQASESLVHSNRNTYLHWYLQKPGQSPQLLIYKVSNRFSGVPDRFSGSGSGTDFTLKISRVEAEDVGVYYCSQNTHVPPTFGQGTKVEIERTVAAPSVFIFPPSDEQLKSGTASVVCLLNNFYPREAKVQWKVDNALQSGNSQESVTEQDSKDSTYSLSSTLTLSKADYEKHKVYACEVTHQGLSSPVTKSFNRGEC	–	–	–	27.8 % of HeCon Ab	14.9 % of HeCon Ab	1.87
GpH7-A5/GpH7-B3 variant S239_16H/GpL16-k0 (antibody, human IgG1, kappa, Heterodimerized anti-glypican-3 IgG1; alteration in only one H chain (GpH7-B3 side); also called He Ab) heavy 1: not shown heavy 2: not shown light: DIVMTQSPLSLPVTPGEPASISCQASESLVHSNRNTYLHWYLQKPGQSPQLLIYKVSNRFSGVPDRFSGSGSGTDFTLKISRVEAEDVGVYYCSQNTHVPPTFGQGTKVEIERTVAAPSVFIFPPSDEQLKSGTASVVCLLNNFYPREAKVQWKVDNALQSGNSQESVTEQDSKDSTYSLSSTLTLSKADYEKHKVYACEVTHQGLSSPVTKSFNRGEC	1.4	49.4 % of control (GpH7-A5/GpH7-B3/GpL16-k0 = 100)	69.2 % of control (GpH7-A5/GpH7-B3/GpL16-k0 = 100)	–	–	–
GpH7-A5/GpH7-B3 variant D265_16H/GpL16-k0 (antibody, human IgG1, kappa, Heterodimerized anti-glypican-3 IgG1; substitution in only one H chain (the GpH7-B3 chain); also called He Ab) heavy 1: not shown heavy 2: not shown light: DIVMTQSPLSLPVTPGEPASISCQASESLVHSNRNTYLHWYLQKPGQSPQLLIYKVSNRFSGVPDRFSGSGSGTDFTLKISRVEAEDVGVYYCSQNTHVPPTFGQGTKVEIERTVAAPSVFIFPPSDEQLKSGTASVVCLLNNFYPREAKVQWKVDNALQSGNSQESVTEQDSKDSTYSLSSTLTLSKADYEKHKVYACEVTHQGLSSPVTKSFNRGEC	–	–	–	48.6 % of HeCon Ab	38.3 % of HeCon Ab	1.27
GpH7-A5/GpH7-B3 variant D265_12R/GpL16-k0 (antibody, human IgG1, kappa, Heterodimerized anti-glypican-3 IgG1; substitution in only one H chain (the GpH7-B3 chain); also called He Ab) heavy 1: not shown heavy 2: not shown light: DIVMTQSPLSLPVTPGEPASISCQASESLVHSNRNTYLHWYLQKPGQSPQLLIYKVSNRFSGVPDRFSGSGSGTDFTLKISRVEAEDVGVYYCSQNTHVPPTFGQGTKVEIERTVAAPSVFIFPPSDEQLKSGTASVVCLLNNFYPREAKVQWKVDNALQSGNSQESVTEQDSKDSTYSLSSTLTLSKADYEKHKVYACEVTHQGLSSPVTKSFNRGEC	–	–	–	28 % of HeCon Ab	15 % of HeCon Ab	1.87
GpH7-A5/GpH7-B3 variant D265_18N/GpL16-k0 (antibody, human IgG1, kappa, Heterodimerized anti-glypican-3 IgG1; substitution in only one H chain (the GpH7-B3 chain); also called He Ab) heavy 1: not shown heavy 2: not shown light: DIVMTQSPLSLPVTPGEPASISCQASESLVHSNRNTYLHWYLQKPGQSPQLLIYKVSNRFSGVPDRFSGSGSGTDFTLKISRVEAEDVGVYYCSQNTHVPPTFGQGTKVEIERTVAAPSVFIFPPSDEQLKSGTASVVCLLNNFYPREAKVQWKVDNALQSGNSQESVTEQDSKDSTYSLSSTLTLSKADYEKHKVYACEVTHQGLSSPVTKSFNRGEC	–	–	–	12.4 % of HeCon Ab	6.1 % of HeCon Ab	2.01
GpH7-A5/GpH7-B3 variant D265_13S/GpL16-k0 (antibody, human IgG1, kappa, Heterodimerized anti-glypican-3 IgG1; substitution in only one H chain (the GpH7-B3 chain); also called He Ab) heavy 1: not shown heavy 2: not shown light: DIVMTQSPLSLPVTPGEPASISCQASESLVHSNRNTYLHWYLQKPGQSPQLLIYKVSNRFSGVPDRFSGSGSGTDFTLKISRVEAEDVGVYYCSQNTHVPPTFGQGTKVEIERTVAAPSVFIFPPSDEQLKSGTASVVCLLNNFYPREAKVQWKVDNALQSGNSQESVTEQDSKDSTYSLSSTLTLSKADYEKHKVYACEVTHQGLSSPVTKSFNRGEC	–	–	–	19.8 % of HeCon Ab	11.3 % of HeCon Ab	1.75
GpH7-A5/GpH7-B3 variant D265_06M/GpL16-k0 (antibody, human IgG1, kappa, Heterodimerized anti-glypican-3 IgG1; substitution in only one H chain (the GpH7-B3 chain); also called He Ab) heavy 1: not shown heavy 2: not shown light: DIVMTQSPLSLPVTPGEPASISCQASESLVHSNRNTYLHWYLQKPGQSPQLLIYKVSNRFSGVPDRFSGSGSGTDFTLKISRVEAEDVGVYYCSQNTHVPPTFGQGTKVEIERTVAAPSVFIFPPSDEQLKSGTASVVCLLNNFYPREAKVQWKVDNALQSGNSQESVTEQDSKDSTYSLSSTLTLSKADYEKHKVYACEVTHQGLSSPVTKSFNRGEC	–	–	–	13.5 % of HeCon Ab	10 % of HeCon Ab	1.35
GpH7-A5/GpH7-B3 variant D265_07I/GpL16-k0 (antibody, human IgG1, kappa, Heterodimerized anti-glypican-3 IgG1; substitution in only one H chain (the GpH7-B3 chain); also called He Ab) heavy 1: not shown heavy 2: not shown light: DIVMTQSPLSLPVTPGEPASISCQASESLVHSNRNTYLHWYLQKPGQSPQLLIYKVSNRFSGVPDRFSGSGSGTDFTLKISRVEAEDVGVYYCSQNTHVPPTFGQGTKVEIERTVAAPSVFIFPPSDEQLKSGTASVVCLLNNFYPREAKVQWKVDNALQSGNSQESVTEQDSKDSTYSLSSTLTLSKADYEKHKVYACEVTHQGLSSPVTKSFNRGEC	–	–	–	3.1 % of HeCon Ab	1.3 % of HeCon Ab	2.35
